We go through six molecules from US20140087995A1 (published 2014).

Assay [1] deals with T1, human calcitonin receptor (human, UniProt P30988 25-474).
T1 construct: whole, on cells; also called hCTR; hCT
T1 sequence (looked up): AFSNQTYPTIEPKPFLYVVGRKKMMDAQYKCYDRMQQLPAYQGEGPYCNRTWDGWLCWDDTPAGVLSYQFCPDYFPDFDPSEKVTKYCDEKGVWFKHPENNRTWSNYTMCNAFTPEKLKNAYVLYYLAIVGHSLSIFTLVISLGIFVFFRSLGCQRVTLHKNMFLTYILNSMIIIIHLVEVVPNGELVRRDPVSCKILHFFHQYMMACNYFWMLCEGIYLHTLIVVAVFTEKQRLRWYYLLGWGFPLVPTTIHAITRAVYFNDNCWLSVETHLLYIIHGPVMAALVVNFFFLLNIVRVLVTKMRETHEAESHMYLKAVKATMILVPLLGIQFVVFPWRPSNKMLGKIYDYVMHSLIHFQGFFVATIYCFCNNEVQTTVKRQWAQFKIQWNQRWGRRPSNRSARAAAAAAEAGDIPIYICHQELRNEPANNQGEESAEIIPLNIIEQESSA
Nature of the assay: SPA competition binding, membranes with human calcitonin receptor, displacement of 125I-calcitonin (Assay VII). In short, it runs like this:
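BHK hCTR membranes 35 ng/μL + SPA beads 0.05 mg/well; buffer 50 mM Hepes pH 7.4, 1 mM CaCl2, 5 mM MgCl₂, 0.1% OA, 0.02% Tween20. 120 min, 25° C., shaking. Scintillation count; IC50 by one-site binding competition.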
(In general: In a radioligand displacement assay an active substance lowers the binding of a labelled ligand.)

In assay [2] the target is T1, human calcitonin receptor. Nature of the assay: ratio of IC50 at hCTR to IC50 at the human amylin receptor (reference). In a few lines:
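IC₅₀ values were derived by one-site competition analysis of SPA counts. Cell membranes (35 ng/μL) with SPA beads were incubated with test compounds for 120 min at 25° C in Hepes buffer, pH 7.4, containing CaCl2, MgCl₂, OA and Tween20.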

Numbered stars: 1 amine (or outer) side, 2 acyl side, 3 side chain; on linkers, the order of the positions; unused ones are H or OH. Bridge positions count the residues as written; N and C are the ends. Side chains are listed from the residue outwards. Ends that are not written are not given here. * marks the point of attachment. C20 diacid = O=C(O)CCCCCCCCCCCCCCCCCCC(=O)*; γGlu = O=C(O)[C@H](CCC(=O)[*:2])N[*:1]

B1: N^ε1-[(4S)-4-carboxy-4-(19-carboxynonadecanoylamino)butanoyl]-[Arg17,Pro21,Pro27,Lys35]-h-amylin (peptide)
peptide: K([γGlu-C20 diacid])CNTATCATQRLANFLRHSSPNFGAIPSSTNVGSKTY-NH2
modifications: disulfide 2-7; N-terminus assumed
SMILES: CC[C@H](C)[C@H](NC(=O)[C@H](C)NC(=O)CNC(=O)[C@H](Cc1ccccc1)NC(=O)[C@H](CC(N)=O)NC(=O)[C@@H]1CCCN1C(=O)[C@H](CO)NC(=O)[C@H](CO)NC(=O)[C@H](Cc1c[nH]cn1)NC(=O)[C@H](CCCNC(=N)N)NC(=O)[C@H](CC(C)C)NC(=O)[C@H](Cc1ccccc1)NC(=O)[C@H](CC(N)=O)NC(=O)[C@H](C)NC(=O)[C@H](CC(C)C)NC(=O)[C@H](CCCNC(=N)N)NC(=O)[C@H](CCC(N)=O)NC(=O)[C@@H](NC(=O)[C@H](C)NC(=O)[C@@H]1CSSC[C@H](NC(=O)[C@@H](N)CCCCNC(=O)CC[C@H](NC(=O)CCCCCCCCCCCCCCCCCCC(=O)O)C(=O)O)C(=O)N[C@@H](CC(N)=O)C(=O)N[C@@H]([C@@H](C)O)C(=O)N[C@@H](C)C(=O)N[C@@H]([C@@H](C)O)C(=O)N1)[C@@H](C)O)C(=O)N1CCC[C@H]1C(=O)N[C@@H](CO)C(=O)N[C@@H](CO)C(=O)N[C@H](C(=O)N[C@@H](CC(N)=O)C(=O)N[C@H](C(=O)NCC(=O)N[C@@H](CO)C(=O)N[C@@H](CCCCN)C(=O)N[C@H](C(=O)N[C@@H](Cc1ccc(O)cc1)C(N)=O)[C@@H](C)O)C(C)C)[C@@H](C)O
notes: also called compound 35
Turning to B1, in assay [1], the IC50 was 48.8 nM. Further, the “Ratio hCT/hAmylin binding” value in assay [2] came out at 50.3.

B2: N^ε1-[(4S)-4-carboxy-4-[[(4S)-4-carboxy-4-(19-carboxynonadecanoylamino)butanoyl]amino]butanoyl]-[Asp14,Arg17,Pro22,Pro26,Asp35]-h-amylin (peptide)
peptide: K([γGlu-γGlu-C20 diacid])CNTATCATQRLADFLRHSSNPFGAPLSSTNVGSDTY-NH2
modifications: disulfide 2-7; N-terminus assumed
SMILES: CC(C)C[C@H](NC(=O)[C@H](CCCNC(=N)N)NC(=O)[C@H](CCC(N)=O)NC(=O)[C@@H](NC(=O)[C@H](C)NC(=O)[C@@H]1CSSC[C@H](NC(=O)[C@@H](N)CCCCNC(=O)CC[C@H](NC(=O)CC[C@H](NC(=O)CCCCCCCCCCCCCCCCCCC(=O)O)C(=O)O)C(=O)O)C(=O)N[C@@H](CC(N)=O)C(=O)N[C@@H]([C@@H](C)O)C(=O)N[C@@H](C)C(=O)N[C@@H]([C@@H](C)O)C(=O)N1)[C@@H](C)O)C(=O)N[C@@H](C)C(=O)N[C@@H](CC(=O)O)C(=O)N[C@@H](Cc1ccccc1)C(=O)N[C@@H](CC(C)C)C(=O)N[C@@H](CCCNC(=N)N)C(=O)N[C@@H](Cc1c[nH]cn1)C(=O)N[C@@H](CO)C(=O)N[C@@H](CO)C(=O)N[C@@H](CC(N)=O)C(=O)N1CCC[C@H]1C(=O)N[C@@H](Cc1ccccc1)C(=O)NCC(=O)N[C@@H](C)C(=O)N1CCC[C@H]1C(=O)N[C@@H](CC(C)C)C(=O)N[C@@H](CO)C(=O)N[C@@H](CO)C(=O)N[C@H](C(=O)N[C@@H](CC(N)=O)C(=O)N[C@H](C(=O)NCC(=O)N[C@@H](CO)C(=O)N[C@@H](CC(=O)O)C(=O)N[C@H](C(=O)N[C@@H](Cc1ccc(O)cc1)C(N)=O)[C@@H](C)O)C(C)C)[C@@H](C)O
notes: also called compound 3
As for B2, the IC50 in assay [1] stood at 19.5 nM. The “Ratio hCT/hAmylin binding” value in assay [2] was 17.3.

B3: N^ε1-[(4S)-4-carboxy-4-[[(4S)-4-carboxy-4-(19-carboxynonadecanoylamino)butanoyl]amino]butanoyl]-[Asp14,Arg17,Pro21,Pro26,Asp35]-h-amylin (peptide)
peptide: K([γGlu-γGlu-C20 diacid])CNTATCATQRLADFLRHSSPNFGAPLSSTNVGSDTY-NH2
modifications: disulfide 2-7; N-terminus assumed
SMILES: CC(C)C[C@H](NC(=O)[C@H](CCCNC(=N)N)NC(=O)[C@H](CCC(N)=O)NC(=O)[C@@H](NC(=O)[C@H](C)NC(=O)[C@@H]1CSSC[C@H](NC(=O)[C@@H](N)CCCCNC(=O)CC[C@H](NC(=O)CC[C@H](NC(=O)CCCCCCCCCCCCCCCCCCC(=O)O)C(=O)O)C(=O)O)C(=O)N[C@@H](CC(N)=O)C(=O)N[C@@H]([C@@H](C)O)C(=O)N[C@@H](C)C(=O)N[C@@H]([C@@H](C)O)C(=O)N1)[C@@H](C)O)C(=O)N[C@@H](C)C(=O)N[C@@H](CC(=O)O)C(=O)N[C@@H](Cc1ccccc1)C(=O)N[C@@H](CC(C)C)C(=O)N[C@@H](CCCNC(=N)N)C(=O)N[C@@H](Cc1c[nH]cn1)C(=O)N[C@@H](CO)C(=O)N[C@@H](CO)C(=O)N1CCC[C@H]1C(=O)N[C@@H](CC(N)=O)C(=O)N[C@@H](Cc1ccccc1)C(=O)NCC(=O)N[C@@H](C)C(=O)N1CCC[C@H]1C(=O)N[C@@H](CC(C)C)C(=O)N[C@@H](CO)C(=O)N[C@@H](CO)C(=O)N[C@H](C(=O)N[C@@H](CC(N)=O)C(=O)N[C@H](C(=O)NCC(=O)N[C@@H](CO)C(=O)N[C@@H](CC(=O)O)C(=O)N[C@H](C(=O)N[C@@H](Cc1ccc(O)cc1)C(N)=O)[C@@H](C)O)C(C)C)[C@@H](C)O
notes: also called compound 1
B3: the IC50 in assay [1] came to 32.5 nM. Moreover, in assay [2], the “Ratio hCT/hAmylin binding” value stood at 27.6.

B4: N^ε1-[(4S)--4-carboxy-4-(19-carboxynonadecanoylamino)butanoyl]-[Glu14,Arg17,Pro21,Pro27,Pro37]-h-amylin (peptide)
peptide: K([γGlu-C20 diacid])CNTATCATQRLAEFLRHSSPNFGAIPSSTNVGSNTP-NH2
modifications: disulfide 2-7; N-terminus assumed
SMILES: CC[C@H](C)[C@H](NC(=O)[C@H](C)NC(=O)CNC(=O)[C@H](Cc1ccccc1)NC(=O)[C@H](CC(N)=O)NC(=O)[C@@H]1CCCN1C(=O)[C@H](CO)NC(=O)[C@H](CO)NC(=O)[C@H](Cc1c[nH]cn1)NC(=O)[C@H](CCCNC(=N)N)NC(=O)[C@H](CC(C)C)NC(=O)[C@H](Cc1ccccc1)NC(=O)[C@H](CCC(=O)O)NC(=O)[C@H](C)NC(=O)[C@H](CC(C)C)NC(=O)[C@H](CCCNC(=N)N)NC(=O)[C@H](CCC(N)=O)NC(=O)[C@@H](NC(=O)[C@H](C)NC(=O)[C@@H]1CSSC[C@H](NC(=O)[C@@H](N)CCCCNC(=O)CC[C@H](NC(=O)CCCCCCCCCCCCCCCCCCC(=O)O)C(=O)O)C(=O)N[C@@H](CC(N)=O)C(=O)N[C@@H]([C@@H](C)O)C(=O)N[C@@H](C)C(=O)N[C@@H]([C@@H](C)O)C(=O)N1)[C@@H](C)O)C(=O)N1CCC[C@H]1C(=O)N[C@@H](CO)C(=O)N[C@@H](CO)C(=O)N[C@H](C(=O)N[C@@H](CC(N)=O)C(=O)N[C@H](C(=O)NCC(=O)N[C@@H](CO)C(=O)N[C@@H](CC(N)=O)C(=O)N[C@H](C(=O)N1CCC[C@H]1C(N)=O)[C@@H](C)O)C(C)C)[C@@H](C)O
notes: also called compound 12
On to B4, for which the IC50 in assay [1] came to 0.353 nM. Besides, in assay [2], the “Ratio hCT/hAmylin binding” value was 2.5.

B5: N^ε1-[(4S)-4-carboxy-4-(19-carboxynonadecanoylamino)butanoyl]-[Arg17,Pro21,Pro27]-h-amylin (peptide)
peptide: K([γGlu-C20 diacid])CNTATCATQRLANFLRHSSPNFGAIPSSTNVGSNTY-NH2
modifications: disulfide 2-7; N-terminus assumed
SMILES: CC[C@H](C)[C@H](NC(=O)[C@H](C)NC(=O)CNC(=O)[C@H](Cc1ccccc1)NC(=O)[C@H](CC(N)=O)NC(=O)[C@@H]1CCCN1C(=O)[C@H](CO)NC(=O)[C@H](CO)NC(=O)[C@H](Cc1c[nH]cn1)NC(=O)[C@H](CCCNC(=N)N)NC(=O)[C@H](CC(C)C)NC(=O)[C@H](Cc1ccccc1)NC(=O)[C@H](CC(N)=O)NC(=O)[C@H](C)NC(=O)[C@H](CC(C)C)NC(=O)[C@H](CCCNC(=N)N)NC(=O)[C@H](CCC(N)=O)NC(=O)[C@@H](NC(=O)[C@H](C)NC(=O)[C@@H]1CSSC[C@H](NC(=O)[C@@H](N)CCCCNC(=O)CC[C@H](NC(=O)CCCCCCCCCCCCCCCCCCC(=O)O)C(=O)O)C(=O)N[C@@H](CC(N)=O)C(=O)N[C@@H]([C@@H](C)O)C(=O)N[C@@H](C)C(=O)N[C@@H]([C@@H](C)O)C(=O)N1)[C@@H](C)O)C(=O)N1CCC[C@H]1C(=O)N[C@@H](CO)C(=O)N[C@@H](CO)C(=O)N[C@H](C(=O)N[C@@H](CC(N)=O)C(=O)N[C@H](C(=O)NCC(=O)N[C@@H](CO)C(=O)N[C@@H](CC(N)=O)C(=O)N[C@H](C(=O)N[C@@H](Cc1ccc(O)cc1)C(N)=O)[C@@H](C)O)C(C)C)[C@@H](C)O
notes: also called compound 48
Regarding B5, the concentration for half-maximal inhibition (IC50) in assay [1] came out at 30.9 nM. Besides, the “Ratio hCT/hAmylin binding” value in assay [2] came out at 69.7.
The matching figures for K([γGlu-γGlu-C20 diacid])CNTATCATQRLAEFLRHSSPNFGAIPSSTNVGSNTP-NH2 (disulfide 2-7 (inferred), also called compound 13): 0.305 nM and 1.2.

As a reminder, the IC50 is the concentration that inhibits the measured activity by half.
